B1: THAP domain-containing protein 1 (Homo sapiens), Q9NVV9 (parent)
chain: MVQSCSAYGCKNRYDKDKPVSFHKFPLTRPSLCKEWEAAVRRKNFKPTKYSSICSEHFTPDCFKRECNNKLLKENAVPTIFLCTEPHDKKEDLLEPQEQLPPPPLPPPVSQVDAAIGLLMPPLQTPVNLSVFCDHNYTVEDTMHQRKRIHQLEQQVEKLRKKLKTAQQRCRRQERQLEKLKEVVHFQKEKDDVSERGYVILPNDYFEIVEVPA

Variants of: B1
Details: with hcfc1_human HCFC1, P51610
Sequence of hcfc1_human HCFC1, P51610 (P51610 whole entry): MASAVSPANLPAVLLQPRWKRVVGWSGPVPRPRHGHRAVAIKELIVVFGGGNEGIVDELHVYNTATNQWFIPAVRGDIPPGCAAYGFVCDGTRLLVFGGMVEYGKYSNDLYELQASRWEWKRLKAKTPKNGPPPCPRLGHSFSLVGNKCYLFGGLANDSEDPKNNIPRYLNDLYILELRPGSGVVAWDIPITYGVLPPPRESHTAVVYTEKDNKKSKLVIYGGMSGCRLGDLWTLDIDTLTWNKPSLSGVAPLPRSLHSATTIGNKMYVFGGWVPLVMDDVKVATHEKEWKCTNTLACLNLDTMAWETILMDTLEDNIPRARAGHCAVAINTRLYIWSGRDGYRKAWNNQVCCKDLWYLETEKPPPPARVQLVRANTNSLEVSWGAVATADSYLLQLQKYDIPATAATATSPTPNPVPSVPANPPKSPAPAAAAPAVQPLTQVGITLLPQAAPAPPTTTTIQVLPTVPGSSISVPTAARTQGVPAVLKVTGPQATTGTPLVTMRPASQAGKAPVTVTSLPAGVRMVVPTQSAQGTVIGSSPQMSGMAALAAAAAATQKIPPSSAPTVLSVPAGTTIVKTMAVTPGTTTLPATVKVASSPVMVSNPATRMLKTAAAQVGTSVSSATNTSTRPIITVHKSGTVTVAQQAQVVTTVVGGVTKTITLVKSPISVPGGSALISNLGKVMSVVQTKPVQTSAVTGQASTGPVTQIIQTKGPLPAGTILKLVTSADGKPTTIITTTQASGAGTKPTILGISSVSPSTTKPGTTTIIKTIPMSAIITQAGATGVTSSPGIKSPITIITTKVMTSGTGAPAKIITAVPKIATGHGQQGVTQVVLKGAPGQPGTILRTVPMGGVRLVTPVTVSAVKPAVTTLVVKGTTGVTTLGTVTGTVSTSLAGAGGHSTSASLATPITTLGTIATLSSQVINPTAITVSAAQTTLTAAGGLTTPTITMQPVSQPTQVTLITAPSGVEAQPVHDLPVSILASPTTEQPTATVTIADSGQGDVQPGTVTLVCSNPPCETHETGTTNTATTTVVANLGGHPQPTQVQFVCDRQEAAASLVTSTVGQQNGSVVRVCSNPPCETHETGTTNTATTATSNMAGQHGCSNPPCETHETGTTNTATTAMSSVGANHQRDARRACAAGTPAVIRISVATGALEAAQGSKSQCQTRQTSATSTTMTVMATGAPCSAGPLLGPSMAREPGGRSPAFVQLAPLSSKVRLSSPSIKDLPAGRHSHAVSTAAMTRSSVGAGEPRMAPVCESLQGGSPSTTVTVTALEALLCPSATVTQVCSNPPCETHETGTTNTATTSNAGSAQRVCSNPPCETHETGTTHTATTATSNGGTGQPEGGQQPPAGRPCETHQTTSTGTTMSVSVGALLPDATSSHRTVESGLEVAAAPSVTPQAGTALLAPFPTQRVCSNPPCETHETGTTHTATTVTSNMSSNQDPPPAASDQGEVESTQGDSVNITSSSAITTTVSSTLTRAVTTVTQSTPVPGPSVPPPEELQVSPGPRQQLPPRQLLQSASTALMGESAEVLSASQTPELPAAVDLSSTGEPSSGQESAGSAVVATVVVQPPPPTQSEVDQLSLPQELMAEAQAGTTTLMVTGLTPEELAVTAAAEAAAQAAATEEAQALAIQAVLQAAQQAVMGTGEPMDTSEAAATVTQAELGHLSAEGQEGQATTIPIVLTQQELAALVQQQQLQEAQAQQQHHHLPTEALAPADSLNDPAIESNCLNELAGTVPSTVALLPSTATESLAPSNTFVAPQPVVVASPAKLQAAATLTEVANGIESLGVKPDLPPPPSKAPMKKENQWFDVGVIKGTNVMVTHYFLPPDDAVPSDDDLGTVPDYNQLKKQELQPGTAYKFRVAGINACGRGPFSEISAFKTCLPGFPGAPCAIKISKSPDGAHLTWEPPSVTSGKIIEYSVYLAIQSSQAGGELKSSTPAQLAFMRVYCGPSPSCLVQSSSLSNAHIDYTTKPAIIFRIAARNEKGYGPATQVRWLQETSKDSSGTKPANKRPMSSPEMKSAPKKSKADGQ

| Variant | effect of a mutation on the interaction |
| --- | --- |
| N136S | disrupting interaction strength |
| N136K | disrupting interaction strength |
| Y137C | disrupting interaction strength |

Variants of: B1
Details: with hcfc1_human HCFC1, P51610
Remark: another data set of the same source

| Variant | effect of a mutation on the interaction |
| --- | --- |
| N136S | decreasing interaction strength |

Reference: IntAct's records for PubMed 28486698
